Paper PMC3122231
Where two headings read alike, the source gives them in different places.

How the values were obtained:
[1] = target: F-actin prepared from rabbit skeletal muscle (rabbit) (UniProt P68135); assay: co-sedimentation
[2] = target: rhodamine-phalloidin-labeled, 10% biotinylated filamentous actin (UniProt P68135); assay: optical trapping
[3] = target: F-actin prepared from rabbit skeletal muscle (rabbit) (UniProt P68135); assay: co-sedimentation; remark: listed apart in the source

| Kd [1] [nM] | koff [2] [s⁻¹] | Kd [3] [nM] | fraction bound in the first sedimentation at 20 μM actin [3] [%] | Substance |
| --- | --- | --- | --- | --- |
| 1500 | 94.2 | 2600 | 54.9 | Drosophila myosin-18 M-PDZ (minimal motor domain construct with the N-terminal PDZ domain) (domain or fragment) |
| 1000 | 57 | 1000 |  | Drosophila myosin-18 M-ΔPDZ (minimal motor domain construct without the PDZ domain) (domain or fragment) |
